Measured values taken from patent publication US20250296971A1, “GASTRIC INHIBITORY PEPTIDE RECEPTOR LIGANDS” (priority 2021, published 2025).
*1 amine or outer side, *2 acyl side, *3 side chain or, on linkers, in order; H or OH if unused. Bridges are numbered along the chain shown (N, C = ends). Primed or numbered codes have the meaning given here. Where no end group is shown, it is not given here. [ ]: non-standard residue; d: D form. The star is where a group is joined. Ttds = 1,13-diamino-4,7,10-trioxatridecan-succinamic acid, NCCCOCCOCCOCCCNC(=O)CCC(=O)*; DOTA(Lu) = O=C1CN2CCN3CCN(CC(=O)*)CCN(CC2)CC(=O)[O][Lu]([O]1)[O]C(=O)C3; NH(1-deoxy-D-glucityl) = OC[C@@H](O)[C@@H](O)[C@H](O)[C@@H](O)CN*; (dE)(AGLU) = D-glutamic acid bearing 1-amino-1-deoxy-D-glucitol; APAc″ = 4-amino-1-carboxymethylpiperidine, NC1CCN(CC(=O)*)CC1; dE(AGLU) = D-glutamic acid bearing 1-amino-1-deoxy-D-glucitol; Pro(trans-4-NH2) = O=C([C@@H]1C[C@@H](N[*:3])CN1[*:1])[*:2]; DOTA = O=C(O)CN1CCN(CC(=O)O)CCN(CC(=O)*)CCN(CC(=O)O)CC1; 2Lut = 2,6-lutidylidene bridge between two thiols; N(CH2CH2CO)Gly = O=C(CN(CCC(=O)[*:3])[*:1])[*:2]; Trp(5-Br) = N[C@@H](Cc1c[nH]c2ccc(Br)cc12)C(=O)O; Trp(5-Cl) = N[C@@H](Cc1c[nH]c2ccc(Cl)cc12)C(=O)O; Pyridine(2,6-diCH2) = c1cc(C[*:1])nc(C[*:2])c1; Cysol = L-cysteinol, OC[C@H](CS[*:3])N[*:1]; Pro(trans-4-F) = O=C(O)[C@@H]1C[C@@H](F)CN1; APAc = 4-amino-1-carboxymethylpiperidine; mXylylene = c1cc(C[*:1])cc(C[*:2])c1; LuDOTA = DOTA Lutetium(III) complex; Glutaryl = O=C(CCCC(=O)[*:2])[*:1]; AGLU = 1-amino-1-deoxy-D-glucitol; Hyp = O=C(O)[C@@H]1C[C@@H](O)CN1; Cysteamide = C(CS[*:3])N[*:1]; Suc = O=C(CCC(=O)[*:2])[*:1]; hSer = N[C@@H](CCO)C(=O)O; Api = NC1(C(=O)O)CCNCC1; Nphe′ = N-phenylalanine; Thp = NC1(C(=O)O)CCOCC1; Aib = CC(C)(N)C(=O)O; Nlys = NCCCCNCC(=O)O; Nleu′ = N-leucine; Sar = CNCC(=O)O

The binders below were run against human Gastric Inhibitory Peptide Receptor (human) (UniProt P48546) (assay: FACS competition with GIP-057 on CHO-K1-hGIPR cells; pIC50 category A: >8.0).
human Gastric Inhibitory Peptide Receptor (human), sequence (P48546 22-466 limits assumed): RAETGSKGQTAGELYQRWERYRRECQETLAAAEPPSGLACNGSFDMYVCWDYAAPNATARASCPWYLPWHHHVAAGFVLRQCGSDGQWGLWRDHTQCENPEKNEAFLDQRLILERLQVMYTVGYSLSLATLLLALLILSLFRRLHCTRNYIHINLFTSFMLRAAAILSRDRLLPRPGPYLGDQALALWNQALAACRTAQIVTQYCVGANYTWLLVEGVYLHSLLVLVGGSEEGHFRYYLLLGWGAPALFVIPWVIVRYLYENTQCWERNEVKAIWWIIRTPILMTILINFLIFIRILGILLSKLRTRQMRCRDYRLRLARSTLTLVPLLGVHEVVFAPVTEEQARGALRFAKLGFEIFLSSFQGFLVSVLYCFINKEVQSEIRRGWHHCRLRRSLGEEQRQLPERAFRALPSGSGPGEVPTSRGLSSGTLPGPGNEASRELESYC

| Binder | pIC50 |
| --- | --- |
| {LuDOTA-APAc″}-DW[Trp(5-Cl)]PE[dL]C[Aib]LI[Cysteamide] (linker 7-11 via mXylylene) [LuDOTA-APAc-Asp-Trp-5Clw-Pro-Glu-leu-[Cys(3MeBn)-Aib-Leu-Ile-AET]] | > 8 pic50 |
| {AGLU-Glutaryl-APAc}-DW[Trp(5-Br)][Pro(trans-4-NH2)]E[dL]C[Api](DOTA)LIC-{APAc-dE(AGLU)-NH2} (linker 7-11 via Pyridine(2,6-diCH2)) [AGLU-Glutar-APAc-Asp-Trp-5Brw-Tap-Glu-leu-[Cys(2Lut)-Apc(DOTA)-Leu-Ile-Cys]-APAc-glu(AGLU)-NH2] | > 8 pic50 |
| Ac-DW[Trp(5-Cl)][Nleu′]E[dL]C[Thp]LIC-NH2 (linker 7-11 via Pyridine(2,6-diCH2)) [Ac-Asp-Trp-5Clw-Nleu-Glu-leu-[Cys(2Lut)-Thp-Leu-Ile-Cys]-NH2] | > 8 pic50 |
| Suc-W[Trp(5-Cl)][Hyp]E[dL]C[Thp]LIC-{APAc-Lys(LuDOTA)-NH2} (linker 6-10 via 2Lut; also: Lu complex of DOTA) [HO-Succinyl-Trp-5Clw-Hyp-Glu-leu-[Cys(2Lut)-Thp-Leu-Ile-Cys]-APAc-Lys(LuDOTA)-NH2] | > 8 pic50 |
| Ac-DW[Trp(5-Cl)][Hyp]E[dL]C[Thp]LIC-NH2 (linker 7-11 via Pyridine(2,6-diCH2)) [Ac-Asp-Trp-5Clw-Hyp-Glu-leu-[Cys(2Lut)-Thp-Leu-Ile-Cys]-NH2] | > 8 pic50 |
| Ac-[hSer]W[Trp(5-Cl)][Hyp]E[dL]C[Thp]LIC-NH2 (linker 7-11 via Pyridine(2,6-diCH2); SMILES CC[C@H](C)[C@@H]1NC(=O)[C@H](CC(C)C)NC(=O)C2(CCOCC2)NC(=O)[C@@H](NC(=O)[C@@H](CC(C)C)NC(=O)[C@H](CCC(=O)O)NC(=O)[C@@H]2C[C@@H](O)CN2C(=O)[C@H](Cc2c[nH]c3ccc(Cl)cc23)NC(=O)[C@H](Cc2c[nH]c3ccccc23)NC(=O)[C@H](CCO)NC(C)=O)CSCc2cccc(n2)CSC[C@@H](C(N)=O)NC1=O) [Ac-Hse-Trp-5Clw-Hyp-Glu-leu-[Cys(2Lut)-Thp-Leu-Ile-Cys]-NH2] | > 8 pic50 |
| Ac-EW[Trp(5-Cl)][Hyp]E[dL]C[Thp]LIC-NH2 (linker 7-11 via Pyridine(2,6-diCH2); SMILES CC[C@H](C)[C@@H]1NC(=O)[C@H](CC(C)C)NC(=O)C2(CCOCC2)NC(=O)[C@@H](NC(=O)[C@@H](CC(C)C)NC(=O)[C@H](CCC(=O)O)NC(=O)[C@@H]2C[C@@H](O)CN2C(=O)[C@H](Cc2c[nH]c3ccc(Cl)cc23)NC(=O)[C@H](Cc2c[nH]c3ccccc23)NC(=O)[C@H](CCC(=O)O)NC(C)=O)CSCc2cccc(n2)CSC[C@@H](C(N)=O)NC1=O) [Ac-Glu-Trp-5Clw-Hyp-Glu-leu-[Cys(2Lut)-Thp-Leu-Ile-Cys]-NH2] | > 8 pic50 |
| Ac-DW[Trp(5-Cl)][Hyp]E[dL]C[Thp]LI[Cysol]-OH (linker 7-11 via Pyridine(2,6-diCH2)) [Ac-Asp-Trp-5Clw-Hyp-Glu-leu-[Cys(2Lut)-Thp-Leu-Ile-Cysol]-OH] | > 8 pic50 |
| Ac-DW[Trp(5-Cl)][Nphe′]E[dL]C[Thp]LIC-NH2 (linker 7-11 via Pyridine(2,6-diCH2)) [Ac-Asp-Trp-5Clw-Nphe-Glu-leu-[Cys(2Lut)-Thp-Leu-Ile-Cys]-NH2] | > 8 pic50 |
| {AGLU-Glutaryl}-DW[Trp(5-Cl)][Hyp]E[dL]C[Thp]LIC-{APAc-dE(AGLU)-NH2} (linker 7-11 via Pyridine(2,6-diCH2)) [AGLU-Glutar-Asp-Trp-5Clw-Hyp-Glu-leu-[Cys(2Lut)-Thp-Leu-Ile-Cys]-APAc-glu(AGLU)-NH2] | > 8 pic50 |
| Ac-DW[Trp(5-Cl)][Hyp]D[dL]C[Thp]LIC-NH2 (linker 7-11 via Pyridine(2,6-diCH2)) [Ac-Asp-Trp-5Clw-Hyp-Asp-leu-[Cys(2Lut)-Thp-Leu-Ile-Cys]-NH2] | > 8 pic50 |
| {LuDOTA-APAc″}-DW[Trp(5-Cl)][Hyp]E[dL]C[Thp]LI[Cysteamide] (linker 7-11 via Pyridine(2,6-diCH2)) [LuDOTA-APAc-Asp-Trp-5Clw-Hyp-Glu-leu-[Cys(2Lut)-Thp-Leu-Ile-AET]] | > 8 pic50 |
| Ac-NW[Trp(5-Cl)][Hyp]E[dL]C[Thp]LIC-NH2 (linker 7-11 via Pyridine(2,6-diCH2); SMILES CC[C@H](C)[C@@H]1NC(=O)[C@H](CC(C)C)NC(=O)C2(CCOCC2)NC(=O)[C@@H](NC(=O)[C@@H](CC(C)C)NC(=O)[C@H](CCC(=O)O)NC(=O)[C@@H]2C[C@@H](O)CN2C(=O)[C@H](Cc2c[nH]c3ccc(Cl)cc23)NC(=O)[C@H](Cc2c[nH]c3ccccc23)NC(=O)[C@H](CC(N)=O)NC(C)=O)CSCc2cccc(n2)CSC[C@@H](C(N)=O)NC1=O) [Ac-Asn-Trp-5Clw-Hyp-Glu-leu-[Cys(2Lut)-Thp-Leu-Ile-Cys]-NH2] | > 8 pic50 |
| Ac-DW[Trp(5-Cl)][Pro(trans-4-NH2)]E[dL]C[Thp]LIC-NH2 (linker 7-11 via Pyridine(2,6-diCH2); not fully specified (residue 4); printed as Ac-Asp-Trp-5Clw-Tap(AGLU-Glutar)-Glu-leu-[Cys(2Lut)-Thp-Leu-Ile-Cys]-NH2) [Ac-Asp-Trp-5Clw-Tap(AGLU-Glutar)-Glu-leu-[Cys(2Lut)-Thp-Leu-Ile-Cys]-NH2] | > 8 pic50 |
| Suc-W[Trp(5-Cl)][Hyp]E[dL]C[Thp]LIC-{APAc-Lys(InDOTA)-NH2} (linker 6-10 via 2Lut; also: In complex of DOTA) [HO-Succinyl-Trp-5Clw-Hyp-Glu-leu-[Cys(2Lut)-Thp-Leu-Ile-Cys]-APAc-Lys(InDOTA)-NH2] | > 8 pic50 |
| {AGLU-Glutaryl-APAc}-DW[Trp(5-Cl)][Pro(trans-4-NH2)]E[dL]C[Api](DOTA)LIC-{APAc-dE(AGLU)-NH2} (linker 7-11 via Pyridine(2,6-diCH2)) [AGLU-Glutar-APAc-Asp-Trp-5Clw-Tap-Glu-leu-[Cys(2Lut)-Apc(DOTA)-Leu-Ile-Cys]-APAc-glu(AGLU)-NH2] | > 8 pic50 |
| {AGLU-Glutaryl}-DW[Trp(5-Cl)][Hyp]E[dL]C[Thp]LIC-NH2 (linker 7-11 via Pyridine(2,6-diCH2)) [AGLU-Glutar-Asp-Trp-5Clw-Hyp-Glu-leu-[Cys(2Lut)-Thp-Leu-Ile-Cys]-NH2] | > 8 pic50 |

| Binder | pIC50 |
| --- | --- |
| DWXXEXCXLIC (N-term AGLU-Glutar; 5Brw; Tap; leu (D-Leu); thioether cycle [Cys(2Lut)..Cys]; Apc(DOTA); C-term APAc-glu(AGLU)-NH2) [AGLU-Glutar-Asp-Trp-5Brw-Tap-Glu-leu-[Cys(2Lut)-Apc(DOTA)-Leu-Ile-Cys]-APAc-glu(AGLU)-NH2] | > 8 pic50 |
| Ac-DW[Trp(5-Cl)][N(CH2CH2CO)Gly]E[dL]C[Thp]LIC-NH2 (linker 7-11 via Pyridine(2,6-diCH2)) [Ac-Asp-Trp-5Clw-Nglu-Glu-leu-[Cys(2Lut)-Thp-Leu-Ile-Cys]-NH2] | > 8 pic50 |
| Ac-DW[Trp(5-Cl)][N(CH2CH2CO)Gly](NH(1-deoxy-D-glucityl))E[dL]C[Thp]LIC-NH2 (linker 7-11 via Pyridine(2,6-diCH2)) [Ac-Asp-Trp-5Clw-Nglu(AGLU)-Glu-leu-[Cys(2Lut)-Thp-Leu-Ile-Cys]-NH2] | > 8 pic50 |
| Ac-DW[Trp(5-Cl)][Hyp]E[dL]C[Thp]LIC-OH (linker 7-11 via Pyridine(2,6-diCH2)) [Ac-Asp-Trp-5Clw-Hyp-Glu-leu-[Cys(2Lut)-Thp-Leu-Ile-Cys]-OH] | > 8 pic50 |
| Ac-DW[Trp(5-Cl)][Hyp]Q[dL]C[Thp]LIC-NH2 (linker 7-11 via Pyridine(2,6-diCH2)) [Ac-Asp-Trp-5Clw-Hyp-Gln-leu-[Cys(2Lut)-Thp-Leu-Ile-Cys]-NH2] | > 8 pic50 |
| Ac-DW[Trp(5-Cl)][Sar]E[dL]C[Thp]LIC-NH2 (linker 7-11 via Pyridine(2,6-diCH2)) [Ac-Asp-Trp-5Clw-Nmg-Glu-leu-[Cys(2Lut)-Thp-Leu-Ile-Cys]-NH2] | > 8 pic50 |
| {LuDOTA-Ttds}-DW[Trp(5-Cl)]PE[dL]C[Aib]LI[Cysteamide] (linker 7-11 via Pyridine(2,6-diCH2)) [LuDOTA-Ttds-Asp-Trp-5Clw-Pro-Glu-leu-[Cys(2Lut)-Aib-Leu-Ile-AET]] | > 8 pic50 |
| Ac-DW[Trp(5-Cl)][Pro(trans-4-F)]E[dL]C[Thp]LIC-NH2 (linker 7-11 via Pyridine(2,6-diCH2)) [Ac-Asp-Trp-5Clw-4Tfp-Glu-leu-[Cys(2Lut)-Thp-Leu-Ile-Cys]-NH2] | > 8 pic50 |
| Ac-DW[Trp(5-Cl)][Nlys]E[dL]C[Thp]LIC-NH2 (linker 7-11 via Pyridine(2,6-diCH2)) [Ac-Asp-Trp-5Clw-Nlys-Glu-leu-[Cys(2Lut)-Thp-Leu-Ile-Cys]-NH2] | > 8 pic50 |
| Suc-W[Trp(5-Cl)][Hyp]E[dL]C[Api](DOTA(Lu))LI[Cysteamide] (linker 6-10 via 2Lut; also: Lu complex of DOTA) [HO-Succinyl-Trp-5Clw-Hyp-Glu-leu-[Cys(2Lut)-Apc(LuDOTA)-Leu-Ile-AET]] | > 8 pic50 |
| Ac-DW[Trp(5-Cl)][Hyp]E[dL]C[Thp]LIC-{APAc-(dE)(AGLU)-NH2} (linker 7-11 via Pyridine(2,6-diCH2)) [Ac-Asp-Trp-5Clw-Hyp-Glu-leu-[Cys(2Lut)-Thp-Leu-Ile-Cys]-APAc-glu(AGLU)-NH2] | > 8 pic50 |
| {LuDOTA-Ttds}-DW[Trp(5-Cl)][Hyp]E[dL]C[Aib]LI[Cysteamide] (linker 7-11 via mXylylene) [LuDOTA-Ttds-Asp-Trp-5Clw-Hyp-Glu-leu-[Cys(3MeBn)-Aib-Leu-Ile-AET]] | > 8 pic50 |
| W[Trp(5-Cl)]PE[dL]C[Aib]LIC-NH2 (linker 6-10 via mXylylene; not fully specified (N-terminus); printed as HO-Succinyl-Trp-5Clw-Pro-Glu-leu-[Cys(3MeBn)-Aib-Leu-Ile-Cys]-NH2) [HO-Succinyl-Trp-5Clw-Pro-Glu-leu-[Cys(3MeBn)-Aib-Leu-Ile-Cys]-NH2] | > 8 pic50 |
| {AGLU-Glutaryl}-[hSer]W[Trp(5-Br)][Pro(trans-4-NH2)]E[dL]C[Api](DOTA)LIC-{APAc-dE(AGLU)-NH2} (linker 7-11 via Pyridine(2,6-diCH2)) [AGLU-Glutar-Hse-Trp-5Brw-Tap-Glu-leu-[Cys(2Lut)-Apc(DOTA)-Leu-Ile-Cys]-APAc-glu(AGLU)-NH2] | > 8 pic50 |
| W[Trp(5-Cl)]PE[dL]C[Thp]LIC-NH2 (linker 6-10 via mXylylene; not fully specified (N-terminus); printed as HO-Succinyl-Trp-5Clw-Pro-Glu-leu-[Cys(3MeBn)-Thp-Leu-Ile-Cys]-NH2) [HO-Succinyl-Trp-5Clw-Pro-Glu-leu-[Cys(3MeBn)-Thp-Leu-Ile-Cys]-NH2] | > 8 pic50 |
| {LuDOTA-Ttds}-DW[Trp(5-Cl)][Sar]E[dL]C[Aib]LI[Cysteamide] (linker 7-11 via mXylylene) [LuDOTA-Ttds-Asp-Trp-5Clw-Nmg-Glu-leu-[Cys(3MeBn)-Aib-Leu-Ile-AET]] | > 8 pic50 |
